Data from patent US6528625.

Legend:
[1] = molecular target: human CCR5 (untagged; endogenous on human leukocytes, parent of the CCR5/CCR2b chimeras, on U87-CD4-CCR5 cells) (human) (UniProt P51681); assay: inhibition of ^125I-MIP-1α binding to activated T cells (CD3 blasts) by 10 µg/ml mAb
[2] = molecular target: FLAG-tagged human CCR5 expressed on L1.2 murine pre-B lymphoma cells (human) (UniProt P51681); assay: cell-based or functional assay
[3] = molecular target: human CCR5 (untagged; endogenous on human leukocytes, parent of the CCR5/CCR2b chimeras, on U87-CD4-CCR5 cells) (human) (UniProt P51681); assay: cell-based or functional assay
[4] = molecular target: human CCR5 (untagged; endogenous on human leukocytes, parent of the CCR5/CCR2b chimeras, on U87-CD4-CCR5 cells) (human) (UniProt P51681); assay: inhibition of ^125I-RANTES binding to activated T cells (CD3 blasts) by 10 µg/ml mAb

Substance: murine monoclonal antibody 2D7
- percent inhibition of ^125I-MIP-1α binding [1]: 85%
- mAb concentration giving complete inhibition of chemotaxis of CCR5 L1.2 cells to RANTES, MIP-1α and MIP-1β [2]: 20 µg/mL
- percent inhibition of RANTES and MIP-1α chemotactic responses of T cell lines [3]: 60 to 80%
- percent inhibition of chemotaxis of activated, IL-2 maintained T cells to MIP-1α [3]: 60 to 80%
- percent inhibition of ^125I-RANTES binding [4]: 95%
